Results: PMC5909843 (Immunity, 2018)

B1: AMMO1 with the first residue of the heavy chain substituted by an asparagine (antibody, V domains shown)
VH: NVQLVQSGADVKKPGASVKVSCKASGYTFIHFGISWVRQAPGQGLEWMGWIDTNNGNTNYAQSLQGRVTMTTDTSTGTAYMELRSLSTDDTAVYFCARALEMGHRSGFPFDYWGQGVLVTVSP
VL: SYELTQPPSVSVAPGQRATITCGGHNIGAKNVHWYQQKPGQAPVLVIQYDSDRPSGIPERFSGSNSGSTATLTISRVEAGDEADYYCQVWDSGRGHPLYVFGGGTKVTVL
B2: E1D1, murine anti-gH/gL monoclonal antibody (antibody, V domains shown)
VH: EVQLEQSGPELVKPGASVKMSCKASGYTFTDYVISWVKQRTGQGLEWIGEIYPESGNTYYNEKFKGEATLTADKSSNTAYMQLSRLTSEDSAVYFCAEGYAMDFWGQGTSVTVSS
VL: DIVITQTPLSLPVSLGDQASISCRSSQSLLHSNGNTYLHWYLQRPGQSPKLLIYKVSNRFSGVPDRFSGSGSGTDFTLMINRVEAEDLGVYFCSQSIHVPRTFGGGTKLEIK

Target: EBV gH/gL heterodimer, recombinant ectodomain (Epstein-Barr virus, UniProt P03231;P03212)
Assay: BLI

Binder	binding result
B1	binds
B2	binds
